Assay results as given in patent US20210388087A1.
Changes are numbered by the printed parent chain. Names may count otherwise.

B1: H183/L072 with K50Y (Kabat) in VL dBBDu072L (antibody, name in Kabat numbering, V domains shown)
VH: QVQLVESGGGLVQPGRSLRLSCAASGFTFSNAWMHWVRQAPGKGLEWVAQIKDKGNAYAAYYAPSVKGRFTISRDDSKNSIYLQMNSLKTEDTAVYYCHYVHYASASTVLPAFGVDAWGQGTTVTVSS
VL: DIVMTQSPLSLPVTPGEPASISCQASQELVHMNRNTYLHWYQQKPGQAPRLLIYYVSNRFPGVPDRFSGSGSGTDFTLKISRVEAEDVGVYYCAQGTSVPFTFGQGTKLEIK
B2: H183/L072 with V51Y (Kabat) in VL dBBDu072L (antibody, name in Kabat numbering, V domains shown)
VH: B1 VH
VL: B1 VL with Y55K, V56Y
B3: H183/L072 with Q90Y (Kabat) in VL dBBDu072L (antibody, name in Kabat numbering, V domains shown)
VH: B1 VH
VL: B1 VL with Y55K, Q95Y
B4: H183/L072 with G91Y (Kabat) in VL dBBDu072L (antibody, name in Kabat numbering, V domains shown)
VH: B1 VH
VL: B1 VL with Y55K, G96Y
B5: H183/L072 with T92Y (Kabat) in VL dBBDu072L (antibody, name in Kabat numbering, V domains shown)
VH: B1 VH
VL: B1 VL with Y55K, T97Y
B6: H183/L072 with P95Y (Kabat) in VL dBBDu072L (antibody, name in Kabat numbering, V domains shown)
VH: B1 VH
VL: B1 VL with Y55K, P100Y
B7: H183/L072 VL L27bR (antibody, name in Kabat numbering, V domains shown)
VH: B1 VH
VL: B1 VL with L29R, Y55K
B8: H183/L072 VL Y32R (antibody, name in Kabat numbering, V domains shown)
VH: B1 VH
VL: B1 VL with Y37R, Y55K
B9: H183/L072 VL L33R (antibody, name in Kabat numbering, V domains shown)
VH: B1 VH
VL: B1 VL with L38R, Y55K
B10: H183/L072 VL H34R (antibody, name in Kabat numbering, V domains shown)
VH: B1 VH
VL: B1 VL with H39R, Y55K
B11: H183/L072 VL A25F (antibody, name in Kabat numbering, V domains shown)
VH: B1 VH
VL: B1 VL with A25F, Y55K
B12: H183/L072 VL H34F (antibody, name in Kabat numbering, V domains shown)
VH: B1 VH
VL: B1 VL with H39F, Y55K
B13: H183/L072 VL A25W (antibody, name in Kabat numbering, V domains shown)
VH: B1 VH
VL: B1 VL with A25W, Y55K
B14: H183/L072 VL H34W (antibody, name in Kabat numbering, V domains shown)
VH: B1 VH
VL: B1 VL with H39W, Y55K
B15: H183/L072 VL A25Y (antibody, name in Kabat numbering, V domains shown)
VH: B1 VH
VL: B1 VL with A25Y, Y55K
B16: H183/L072 VL L27bY (antibody, name in Kabat numbering, V domains shown)
VH: B1 VH
VL: B1 VL with L29Y, Y55K
B17: H183/L072 VL H34Y (antibody, name in Kabat numbering, V domains shown)
VH: B1 VH
VL: B1 VL with H39Y, Y55K
B18: H183/L072 VL Y32T (antibody, name in Kabat numbering, V domains shown)
VH: B1 VH
VL: B1 VL with Y37T, Y55K
B19: H183/L072 VL H34T (antibody, name in Kabat numbering, V domains shown)
VH: B1 VH
VL: B1 VL with H39T, Y55K
B20: H183/L072 VL A25D (antibody, name in Kabat numbering, V domains shown)
VH: B1 VH
VL: B1 VL with A25D, Y55K
B21: H183/L072 VL N28D (antibody, name in Kabat numbering, V domains shown)
VH: B1 VH
VL: B1 VL with N33D, Y55K
B22: H183/L072 VL Y32D (antibody, name in Kabat numbering, V domains shown)
VH: B1 VH
VL: B1 VL with Y37D, Y55K
B23: H183/L072 VL L33D (antibody, name in Kabat numbering, V domains shown)
VH: B1 VH
VL: B1 VL with L38D, Y55K
B24: H183/L072 VL H34D (antibody, name in Kabat numbering, V domains shown)
VH: B1 VH
VL: B1 VL with H39D, Y55K
B25: H183/L072 VL Q24E (antibody, name in Kabat numbering, V domains shown)
VH: B1 VH
VL: B1 VL with Q24E, Y55K
B26: H183/L072 VL A25E (antibody, name in Kabat numbering, V domains shown)
VH: B1 VH
VL: B1 VL with A25E, Y55K
B27: H183/L072 VL Y32E (antibody, name in Kabat numbering, V domains shown)
VH: B1 VH
VL: B1 VL with Y37E, Y55K
B28: H183/L072 VL H34E (antibody, name in Kabat numbering, V domains shown)
VH: B1 VH
VL: B1 VL with H39E, Y55K
B29: H183/L072 VL A25H (antibody, name in Kabat numbering, V domains shown)
VH: B1 VH
VL: B1 VL with A25H, Y55K
B30: H183/L072 VL T31H (antibody, name in Kabat numbering, V domains shown)
VH: B1 VH
VL: B1 VL with T36H, Y55K
B31: H183/L072 VL A25K (antibody, name in Kabat numbering, V domains shown)
VH: B1 VH
VL: B1 VL with A25K, Y55K
B32: H183/L072 VL Y32K (antibody, name in Kabat numbering, V domains shown)
VH: B1 VH
VL: B1 VL with Y37K, Y55K
B33: H183/L072 VL L33K (antibody, name in Kabat numbering, V domains shown)
VH: B1 VH
VL: B1 VL with L38K, Y55K
B34: H183/L072 VL H34K (antibody, name in Kabat numbering, V domains shown)
VH: B1 VH
VL: B1 VL with H39K, Y55K
B35: H183/L072 VL A25R (antibody, name in Kabat numbering, V domains shown)
VH: B1 VH
VL: B1 VL with A25R, Y55K
B36: H183/L072 VL F55A (antibody, name in Kabat numbering, V domains shown)
VH: B1 VH
VL: B1 VL with Y55K, F60A
B37: H183/L072 VL R54N (antibody, name in Kabat numbering, V domains shown)
VH: B1 VH
VL: B1 VL with Y55K, R59N
B38: H183/L072 VL H34A (antibody, name in Kabat numbering, V domains shown)
VH: B1 VH
VL: B1 VL with H39A, Y55K
B39: CE115HA000/GLS3000 H27dD (antibody, IgG1, name in Kabat numbering, V domains shown)
VH: QVQLVESGGGVVQPGRSLRLSCAASGFTFSNAWMHWVRQAPGKGLEWVAQIKAKSNNYATYYAESVKGRFTISRDDSKNSLYLQMNSLKTEDTAVYYCRYVHYGAYYGVDAWGQGTTVTVSS
VL: B1 VL with Q24R, A25S, E28S, H31D, M32S, Y55K, P61S, A94G, S98Q, F101Y
B40: GPC3/Ctrl × CD3 trispecific antibody (antibody, part only; not given: control Fv, constant regions, Fc, V domains shown, not shown: another chain or arm of the molecule; a dimerising Fc or GST; large carriers; small tags and cut ends)
VH 1: QVQLVESGGGLVQPGRSLRLSCAASGFTFSNAWMHWVRQAPGKGLEWVAQIKDRANSYNTYYAESVKGRFTISRDDSKNSIYLQMNSLKTEDTAVYYCRYVHYTTYAGSSFSYGVDAWGQGTTVTVSS
VL 1: B1 VL with Q24R, A25S, E28P, M32S, Y55K, P61S, A94G, S98Q, F101Y
VH 2: QVQLVQSGAEVKKPGASVTVSCKASGYTFTDYEMHWIRQPPGEGLEWIGAIDGPTPDTAYSEKFKGRVTLTADKSTSTAYMELSSLTSEDTAVYYCTRFYSYTYWGQGTLVTVSS
VL 2: B1 VL with Q24R, A25S, E28P, M32S, Y55K, P61S, A94G, S98Q, F101Y
B41: Ctrl/Ctrl × CD3 trispecific antibody (antibody, part only; not given: control Fvs, constant regions, Fc, V domains shown, not shown: another chain or arm of the molecule; a dimerising Fc or GST; large carriers)
VH: B40 VH 1
VL: B1 VL with Q24R, A25S, E28P, M32S, Y55K, P61S, A94G, S98Q, F101Y

These binders were tested against Human CD3eg linker (human) (assay: affinity relative to template H183/L072, single-mutation scan).
Human CD3eg linker (human), sequence (chain, as listed by the source limits assumed): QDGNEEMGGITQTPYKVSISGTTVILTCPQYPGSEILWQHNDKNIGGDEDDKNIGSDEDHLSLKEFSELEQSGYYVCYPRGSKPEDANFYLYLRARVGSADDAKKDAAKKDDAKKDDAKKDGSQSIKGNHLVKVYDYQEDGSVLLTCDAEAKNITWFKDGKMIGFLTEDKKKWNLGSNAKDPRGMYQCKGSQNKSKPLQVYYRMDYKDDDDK

Row | Binder | fold change of affinity for CD3 [fold]
1 | B1 | 0
2 | B2 | 0
3 | B3 | 0
4 | B4 | 0
5 | B5 | 0
6 | B6 | 0

What follows are binders tested against Human CD3eg linker (human) (assay: SPR; fold vs parent H183/L072).

Row | Binder | fold change of affinity [fold]
7 | B7 | 0
8 | B8 | 0
9 | B9 | 0
10 | B10 | 0
11 | B11 | 0
12 | B12 | 0
13 | B13 | 0
14 | B14 | 0
15 | B15 | 0
16 | B16 | 0
17 | B17 | 0

What follows are binders tested against Human CD137 ECD (human) (assay: Biacore SPR, vs parent H183/L072).
Human CD137 ECD (human), sequence (chain, as listed by the source limits assumed): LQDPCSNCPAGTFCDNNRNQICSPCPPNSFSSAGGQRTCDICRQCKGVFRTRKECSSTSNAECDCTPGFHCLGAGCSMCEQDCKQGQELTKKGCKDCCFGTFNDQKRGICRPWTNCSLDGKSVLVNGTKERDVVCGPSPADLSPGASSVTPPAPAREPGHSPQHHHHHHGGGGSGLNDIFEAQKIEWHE

Row | Binder | fold change of affinity [fold]
18 | B18 | 0
19 | B19 | 0
20 | B20 | 0
21 | B21 | 0
22 | B22 | 0
23 | B23 | 0
24 | B24 | 0
25 | B25 | 0
26 | B26 | 0
27 | B27 | 0
28 | B28 | 0
29 | B29 | 0
30 | B30 | 0
31 | B31 | 0
32 | B32 | 0
33 | B33 | 0

Row | Binder | fold change of affinity [fold]
34 | B34 | 0
35 | B35 | 0
36 | B7 | 0
37 | B8 | 0
38 | B9 | 0
39 | B10 | 0
40 | B11 | 0
41 | B12 | 0
42 | B13 | 0
43 | B14 | 0
44 | B15 | 0
45 | B16 | 0
46 | B17 | 0
47 | B36 | 0
48 | B37 | 0.06
49 | B38 | 0

What follows are binders tested against CD3 epsilon homodimer protein (UniProt P07766) (assay: SPR, antibody over immobilised CD3e homodimer).
CD3 epsilon homodimer protein, sequence (P07766 23-126): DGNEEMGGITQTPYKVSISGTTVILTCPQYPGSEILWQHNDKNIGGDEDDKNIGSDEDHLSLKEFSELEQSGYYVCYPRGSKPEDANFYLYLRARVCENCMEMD

Row | Binder | KD ratio to GLS3000
50 | B39 | 13600

These binders were tested against Human CD3eg linker (human) (assay: SPR (Biacore T200), 37 degrees C, antibody captured by anti-human Fc on CM4 chip, recombinant human CD3 as analyte, 1:1 model).

Row | Binder | Kd [nM] | koff [s⁻¹] | kon [M⁻¹ s⁻¹]
51 | B40 | 17.8 | 0.00151 | 85000
52 | B41 | 17.5 | 0.00147 | 83700
